In the DeepSol protein solubility set:

test: soluble on expression in E. coli; label from the status in PepcDB or PDB records

| Sequence | soluble on expression in E. coli |
| --- | --- |
| MSLQRARCYLIGETAVVLELEPPVTLASQKRIWRLAQRLVDMPNVVEAIPGMNNITVILRNPESLALDAIERLQRWWEESEALEPESRFIEIPVVYGGAGGPDLAVVAAHCGLSEKQVVELHSSVEYVVWFLGFQPGFPYLGSLPEQLHTPRRAEPRLLVPAGSVGIGGPQTGVYPLATPGGWQLIGHTSLSLFDPARDEPILLRPGDSVRFVPQKEGVCEGHHHHHH | not soluble |
| SEDNITVRFVTENDKEGWQRLWKSYQDFYEVSFPDDLDDFNFGRFLDPNIKMWAAVAVESSSEKIIGMINFFNHMTTWDFKDKIYINDLYVDENSRVKGAGGKLIQFVYDEADKLGTPSVYWCTDESNHRAQLLYVKVGYKAPKILYKRKGY | soluble |
| MSLRTTDDLPNALPPALESMTLLVAAVIVHDQATNRVVLLQRSENAKFAQGMWDLPVGKSEPGEPITETAVRELHEETGLTVKPEALMVAHIIHGSWGVEAPNGFLTVVFATHEWTGEPENREPRKHSQVRWVDADAIPEECVDTTASALHHYLSGGAQVSLDGWLPKEGHHHHHH | soluble |
| MAEEIQMYDDAASVAFIRNFIPQELKEKMTDDDIVYIVDLIYDFYESRGFMDMAEDSEETVEVDEDELVEYVVKNAARDEVGHFSADEIRFVVQGELEYCESINLFEED | not soluble |
| MAHHHHHHMYRNLFDKLKDGPLKISILGSGNWASAISKVVGTNAKNNYLFENEVRMWIRDEFVNGERMVDIINNKHENTKYLKGVPLPHNIVAHSDLASVINDADLLIFIVPCQYLESVLASIKESESIKIASHAKAISLTKGFIVKKNQMKLCSNYISDFLNIPCSALSGANIAMICGALKNIITLACGFCDGLNLPTNSKSAIIRNGINEMILFGKGTVTLKYVYHMIKEKNMTNEFPLFTVLHKISFENEDPSSLLKTFMNNKINQLNL | not soluble |
| MAEARPDSLTRSRAAKPAGEGAAFSPLYRQIKELLVQSLDRGEWKPGELIPSEIDLAARFQVSQGTVRKAVDELAAEHLLLRRQGKGTFVATHHEARVRYRFLRLAPDEEGEGGRAESRILECRRLRAPAEIARALELRAGETVVTIRRQLSMNHMPTVIDDLWLPGTHFRGLTLELLTASKAPLYGLFESEFGVSMVRADEKLRAVAASPEIAPLLGVEPGRPLLQVDRISYTYGDRPMEVRRGLYLTDHYHYRNSLN | soluble |
| ILTENTPYFEQLSVPQRSVGRIIGRGGETIRSICKASGAKITCDKESEGTLLLSRLIKISGTQKEVAAAKHLILEKVSEDEELRKRIAHSA | soluble |
| MAHHHHHHMHPPSSGQGLFPRYGGGWMHQFGHVYALQQELLDPNANNWFRAVELWHTARQEGVAMNVSHFTSILRQCVQPGAWAQSLQVLKQMKRENVRPDVVGVGCALAACVEGKHYDEVENIFATFHKTMLLDSVCHLALIRARQESGNAKGAIAAGKQQQADQVPFLPYTYTHLLEACNAEDDAAYAMELVRNMHSEQWVPSQCAMLAIEDLGRRHERLAAFSRPLLSASDKADSALPSFDASRRLLPPEW | not soluble |
| MGSDKIHHHHHHMEYIVRTHKIGIYEKALPKNLSWQDRLSIAKACGFDFVEISIDETDERLARLDWSKAERIELVTAIISTGITIPSMCLSGHRRFPFGSRDEATRQKAFEIMKKAIQLAVDLGIRTIQLAGYDVYYEEQDEGTIQRFQQGLEWAVKLAASHQVTIAVEIMDTQFISSISRWKKWDNIIRSPWFTVYPDLGNLSAWNENVSEELKLGIDKISAIHLKDTYKVTTTSKGQFRDVPFGAGCVDFVQCFRILSELNYRGAFLVEMWTEKAEEPITEIINARRWIEQKMKEGGFQC | not soluble |
| EVQLVESGGDLVKPGGSLKLSCAASGFTFSSYGMSWIRQTPDKRLEWVATISSGGSYTYYPDSVKGRFTISRDNAKNTLYLQMSSLKSEDTAMFYCARQTTMTYFAYWGQGTLVTVSAAKTTPPSVYPLAPGSAAQTNSMVTLGCLVKGYFPEPVTVTWNSGSLSSGVHTFPAVLQSDLYTLSSSVTVPSSPRPSETVTCNVAHPASSTKVDKKIEPA | soluble |
| MAHHHHHHMPSRRFNARRGMIAARRGFFTATSPCRQSRLVPFHELFAPLSSSSLPSSPRRFPVHSVCVDPPLGTLGEPSRSQGAGAEDGSPLSWLRENLQLLEDGRKSLNERRASMPEGSPQWPRYMFPSHCCEYIYDPSNDSKLAFVTSDNYCHLCHEPVEVAIQHCAWWDHVTRLAAIRLIAIYPRRWSPVAVLREANEVLPTAVMVSPRPHPFLSFSEAVDTDDVSLMDMSSCYVFEREAVVRRAELAAILRVLCTAKDADSCDDAEQRISSIIPVLRESLFLSANGTPAASSGERTFRAYISRQISVFLPPMAPEPTTRIQQRCWGRKNLEIMFDLLGVASLQRIAGAPVEAVTKNEKAAVLRQIIYELATVLSEGDAEFAETSCAKINGTSSVDAEVQTRLLAEMALQRLAHELIHLHTMLLMDQAYETYVKLGYPSEGMLEKSGFC | not soluble |
| MKTKIIGVLGLGIFGQTLAQELSNFEQDVIAIDSNPENVQAVAEVVTKAAIGDITDLAFLKHIGISDCDTVIIATGNSLESSVLAVMHCKKLGVPQVIAKARNLVYEEVLYEIGADLVISPERESGQNVAANLMRNKITDVFQIESDISVIEFKIPKSWVGKTVEQLNIRHKFDLNLIGIRKAKNKPVDTEVPINSPLEEGIILVAIANSDAFQRYDYLGYFNLEHHHHHH | soluble |
| LGTLFFSLEYNFERKAFVVNIKEARGLPAMDEQSMTSDPYIKMTILPEKKHKVKTRVLRKTLDPAFDETFTFYGIPYTQIQELALHFTILSFDRFSRDDIIGEVLIPLSGIELSEGKMLMNREII | soluble |
| MQYTLKQISEHLNAKVINEPSGEVIITGLTYAEQAKENDLTLIDKQEHIKLWQNSKATAAIVSKKISKELAQVNDKPLIVVNNADLAMAKILELFSVPYPEQNGIHEKAIIDPTAKIGKNVSIGPSAYIGKNVEIGDNTIIYANVCIYNDAKVGTNCIIWPSVIIRDRTIIGHFCRLCSNCSIGSDGFGYRPSEDGRTIVRIPHIGNVVIGSFVDIGSNTCINNAKYGSTIIGDYTKIDNLVQIGHNVIIGKGCMICGQAGISGSVTIGDGVIIAGNAGIKDHTNIGSDARIGGKAGVMWDVPAGESHMGYPAYKDSELAKQWIAIRKLPETMKKLKAIAKSLNIDL | not soluble |
| MASIVFSTIGNPKGYQKVTYEIDGEKFESNVSVLALRDLLKVDKTVVILGISVADVYNCKYADYRSCKECIIQNSKNDLGISESYVVAPNVYQKFKGKPDHYFTYIYYHSLRILEKEGINEVFIDTTHGINYMGVLAKEAIQLAVSAYAAKSEKEVKVSLYNSDPVGKDVSDTVKLHEIEAIKISPLSGLKYVTYQILNKDKNFFNKIFSDSVNAIPRFATALDNGLFIYLSEKDSSLHLKRLEDDLSKDPLLTPSENEINVVYKDMKYALSHALFYVISRFSGNVDLDTLRHYAETYADKVTRAIIENEVDKIEKYQMGSERKLLGEYMKVEGKGFDKRILYAHGGLPYAGTYVYKEKDKVYVTYGDKIDEIERQI | soluble |
| MPKVISQKEFNILSRTKERVNFQIVYTKQRNGLHKAAKEYFFKDKDFTIIEDTPDTPDQPDGPCITKGPKEPGGPEEPNGPDKPEDPKDPDTPDVSEGPKEQGGQKDPGGPDDPSEGKQKVSKPDKYVTHRELDEKLKDFATKADFKRVEDKVDVLFELQKTQGEQIKVQGEQIKAQGKQIEQLTETVKVQGEQIRAQGEQIKAQSEEIKEIKVEQKAQGEQIKELQVEQKAQGKTLQLILKTLEKMNERLEKLESKLEHHHHHH | not soluble |
| MGSDKIHHHHHHMKRPLKVLVVGAKFGELYLNSFLLEQPGLQLAGLLANGSPRARALANAFGIALYTDIEQLPDDLDIACVVVRSAVVGGAGGQLTESLLRRGLHVIQEHPVHPDELVRHQQLATRMGCQYIVNSFYPHTEAGRCWAGTAQRISRLLEGRKPNLAQLTTSRQLLYSGLDLLFQALGCDLARQVSVSLLDGDDDFHTLSLNLPDSRVLLRLQRWMAADDPDLHSLVMHQLNLAWPSGYLSLDATYGPVNWTPALHAEAHDDDRQTLYTSNADYLQHATAMPLHPAASHWRSAHEIEGPAGVGWLLQQLLAVLQGRPRADGLQADYQLAVARLWQDILRCAGPAEQRMASAPLFIDAAQLRAEG | not soluble |
| MGSDKIHHHHHHMQNVIENFKQLCKIPHCSYETEQMKEFLSSYAKDKGFKVSVDKAGNIHAIKGKPKICLQSHYDMVCMGDAPNLEVYEENGFLRAKNSSLGADNGIGIAIMMSAMAEFENLECLFTNDEEVGLMGVNLLEHTLESKMLLNLDHESDDEIMIGCAGGVDIEASLSFNTLRKKGKIYELCAQNFKGGHSGINIIRNEKSSIKEMAKFIQENEGEIISFEGGERINSIPKHAKALVHFKDEVKSNNWIKCEFKEENEFEICDQSKKLLSLINSFTHGVRAYDENLDIVQTSINLATLRMQDNQIKFALFARSNILDGLKQVEFETLEFFKAFDFKIRSFNFYPPWEGKPNALSDMVFKALKKVSPNAKVSAIHAGLECGIIEKKQELLCASIGPNIHNPHSTDEHCEIASVEKISKVVFEVLKDNA | not soluble |
| MLITVYCVRRDLSEVTFSLQVSPDFELRNFKVLCEAESRVPVEEIQIIHMERLLIEDHCSLGSYGLKDGDIVVLLQKDNVGPRAPGRAPNQPRVDFSGIAVPGTSSSRPQHPGQQQQRTPAAQRSQGLASGEKVAGLQGLGGPALIRSMLLSNPHDLSLLKERNPPLAEALLSGSLETFSQVLMEQQREKALREQERLRLYTADPLDREAQAKIEEEIRQQNIEENMNIAIEEAPESFEQVTMLYINCKVNGHPLKAFVDSGAQMTIMSQACAERCNIMRLVDRRWAGVAKGVGTQRIIGRVHLAQIQIEGDFLQCSFSILEDQPMDMLLGLDMLRRHQCSIDLKKNVLVIGTTGTQTYFLPEGELPLCSRMVSGQDESSDKEITHSVMDSGRKEH | soluble |
| YNIYNNPKEANNRKDTVLYLMHKHNRINDKQYADAKKIDLKANLVERTKKERQVTGNEKNPEYDSYVNFVQSELMNNKYFKDKNLGSVLQSG | not soluble |
| MKMELKEGGKIFFRWFRKTFGEEVTDEGIIHRLEPPNLIEFSWNTYEDGFRSRVKMEFFPSSYNGTWVQVEDHTIVLNEEDMKIKLECAVGWGEMLTLAKIWIEYGISTLENP | not soluble |
| MAPTQAQKVLEAFEDFLKCLDLESYQEKYRPIKTVEQDLPRELNPLPDLYDHYWKPNGNTLHFPDFETFFDQWWEKRLRPLNEFIRKYFWGCSYEFVRLGLEARLYRTAVSIWTQFHFCYRWNASCQLRLTATWELDAQGIDAQIQAEDRLIGIQIKKETYRSEAREGNRFLRRREHSALLEVPYTLQSPEELERKAQRARTREEAYRLWVKIAHHLERLPNGFVIFRESYVKDLENFLKQNATTLSGLIPWDKVAREALTGP | soluble |
| MTKQYLTHRCLIAPPEMADDFFANTVIYLARHDDEGAQGLIINRPSGIQVRELLNDLDIEADHVQPHEVLQGGPLRPEAGFVLHTGQPVWHSSIAVGENLCITTSKDILDAIAHNEGVGRYQIALGYASWTKNQLEGEISRGDWLICDADMDLIFNLPYDERWDAAYKKLGVDRIWLSSEIGHALEHHHHHH | soluble |
| MSLDIAYFTKTLEGLPLEKAAEITAGLGFDCADLLIRDGHAVSPDRPEGIANAVKFFAAAGVRTSMATIDSARPDDAASRLLSCCGEAGIGQIRLGFWRYDPSRRWRVQVDEARRDLDGFERLADRFGIKLTIQLHGGTLHSSGALAVQLLAGRDPIRLGAYPDPANQIIREGSEDWRLTLDILDPWFCCMGVKNSGWFPGAYGSHGQRAWHSDWYGLDEGMVPWNEIVPHLVATGFTGVLSMHSQYRVSREQALDKVRADLAHFRRLVAAAKEGHHHHHH | not soluble |
